For one assay, the target named is VEGF165 (human). Nature of the assay: SEC-MALS; inhibitor and ligand mixed at molar ratios 5:1 to 1:5 (20 µM and 100 µM), 12 h at ambient temperature; free proteins injected separately; Superose 12 10/300 GL, 10 mM phosphate, 500 mM NaCl, pH 7.0, 0.3 mL/min. A general note: In gel filtration, larger molecules generally elute earlier.
A further assay deals with FcγRIIIb (human) (UniProt O75015). Nature of the assay: SPR; His-tagged or myc-myc His-tagged Fcγ receptors captured (about 200 RU) on anti-histidine antibody on a CM4 or CM5 chip; inhibitor with or without equimolar VEGF165 or VEGF121 injected (1 µM in Table 1); Biacore 3000, 25 °C, HBS-T pH 7.4; only kd and t1/2 calculated.
FcγRIIIb (human), sequence (O75015 17-200): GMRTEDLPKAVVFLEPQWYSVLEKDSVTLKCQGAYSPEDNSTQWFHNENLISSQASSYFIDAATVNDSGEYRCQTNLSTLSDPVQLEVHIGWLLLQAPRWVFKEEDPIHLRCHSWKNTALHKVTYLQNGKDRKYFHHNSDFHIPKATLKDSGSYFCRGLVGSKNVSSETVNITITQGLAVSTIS
Another assay deals with FcγRIIIa (176V) (human) (UniProt P08637). The assay is described as above.
FcγRIIIa (176V) (human), sequence (P08637 17-254 F176V): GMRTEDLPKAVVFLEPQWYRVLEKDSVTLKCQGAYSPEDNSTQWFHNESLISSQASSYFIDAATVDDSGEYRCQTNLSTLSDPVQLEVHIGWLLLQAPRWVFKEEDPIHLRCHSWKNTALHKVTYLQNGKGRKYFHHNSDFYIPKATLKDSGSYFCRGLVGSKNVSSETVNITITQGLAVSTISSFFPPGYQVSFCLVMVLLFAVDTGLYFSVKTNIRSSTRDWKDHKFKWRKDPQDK
A further assay has as its target FcγRIIIa (176F) (human) (UniProt P08637). The description is as above.
The target in a further assay is FcγRI (human) (UniProt P12314). The assay is described as above.
FcγRI (human), sequence (P12314 16-292): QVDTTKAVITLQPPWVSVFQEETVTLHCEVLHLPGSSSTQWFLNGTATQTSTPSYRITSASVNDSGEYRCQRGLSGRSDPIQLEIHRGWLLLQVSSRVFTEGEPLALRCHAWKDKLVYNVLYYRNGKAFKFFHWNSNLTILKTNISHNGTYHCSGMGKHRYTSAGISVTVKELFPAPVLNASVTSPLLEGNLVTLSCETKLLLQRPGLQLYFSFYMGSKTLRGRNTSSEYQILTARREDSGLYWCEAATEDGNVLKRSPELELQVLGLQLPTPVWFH
Another assay concerns the target T1, PlGF-2 (UniProt P49763).
T1 sequence: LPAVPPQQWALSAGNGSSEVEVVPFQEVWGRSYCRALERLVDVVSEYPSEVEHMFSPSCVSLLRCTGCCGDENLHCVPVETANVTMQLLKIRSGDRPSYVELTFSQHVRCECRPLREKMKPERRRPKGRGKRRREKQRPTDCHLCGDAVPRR
Nature of the assay: SEC-MALS; inhibitor and ligand mixed at molar ratios 5:1 to 1:5 (20 µM and 100 µM), 12 h at ambient temperature; free proteins injected separately; Superose 12 10/300 GL, 10 mM phosphate, 500 mM NaCl, pH 7.0, 0.3 mL/min.

Assay [1] has as its target FcγRIIa (131R allele) (human) (UniProt P12318). Nature of the assay: SPR; His-tagged or myc-myc His-tagged Fcγ receptors captured (about 200 RU) on anti-histidine antibody on a CM4 or CM5 chip; inhibitor with or without equimolar VEGF165 or VEGF121 injected (1 µM in Table 1); Biacore 3000, 25 °C, HBS-T pH 7.4; only kd and t1/2 calculated.
In a further assay the target is FcγRIIb (human) (UniProt P31994). Described as above.
FcγRIIb (human), sequence (P31994 43-217): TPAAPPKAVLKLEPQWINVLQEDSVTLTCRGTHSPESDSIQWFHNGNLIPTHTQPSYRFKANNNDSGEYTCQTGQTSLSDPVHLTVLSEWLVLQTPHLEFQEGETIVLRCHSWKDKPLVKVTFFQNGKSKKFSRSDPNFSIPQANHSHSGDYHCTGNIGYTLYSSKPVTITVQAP

This is an account of results in publication PMC4930479.

aflibercept (Fc fusion), sequence (chain): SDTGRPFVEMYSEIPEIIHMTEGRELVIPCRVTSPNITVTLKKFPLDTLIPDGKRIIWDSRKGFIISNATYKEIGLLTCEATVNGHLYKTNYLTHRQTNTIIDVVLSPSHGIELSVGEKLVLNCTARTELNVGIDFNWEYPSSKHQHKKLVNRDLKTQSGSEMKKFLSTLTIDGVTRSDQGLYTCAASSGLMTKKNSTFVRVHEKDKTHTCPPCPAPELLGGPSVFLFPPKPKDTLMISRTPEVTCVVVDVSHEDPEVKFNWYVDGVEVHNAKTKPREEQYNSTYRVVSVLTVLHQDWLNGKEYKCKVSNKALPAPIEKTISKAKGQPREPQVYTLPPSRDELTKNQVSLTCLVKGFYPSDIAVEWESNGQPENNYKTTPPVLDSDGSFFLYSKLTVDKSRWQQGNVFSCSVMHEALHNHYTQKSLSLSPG
FcγRIIIa (176F) (human), sequence (P08637 17-254): as the sequence (P08637 17-254 F176V) above, with V160F counted along it

In the case of VEGF165 (ligand), the stoichiometry N (in general, a count of units in the complex or per binding partner) with VEGF165 (human) is 2.

For aflibercept (Fc fusion), the t1/2 in the assay with FcγRIIIb (human) is 0.0667 min; with FcγRIIIa (176V) (human), 1.52 min; with FcγRIIIa (176F) (human), 0.233 min; with FcγRI (human), 16 min. Besides, the stoichiometry N (aflibercept per PlGF-2 dimer) in the assay with PlGF-2 stood at 1. In the assay with VEGF165 (human), the stoichiometry N (aflibercept per VEGF165 dimer) worked out at 1.

Take aflibercept:VEGF121 complex: the t1/2 is 0.0833 min with FcγRIIIb (human); 2.02 min with FcγRIIIa (176V) (human); 0.317 min with FcγRIIIa (176F) (human); 0.0667 min in assay [1]; 16.9 min with FcγRI (human).

Consider aflibercept:VEGF165 complex, for which the koff – broadly, the first-order rate constant of dissociation – with FcγRIIIb (human) was 0.164 s⁻¹; in the assay with FcγRIIIa (176V) (human), 0.00614 s⁻¹; with FcγRIIIa (176F) (human), 0.0392 s⁻¹; in assay [1], 0.205 s⁻¹; with FcγRI (human) it was 0.000617 s⁻¹; in the assay with FcγRIIb (human), 0.174 s⁻¹. Besides, the t1/2 in the assay with FcγRIIIb (human) is 0.0667 min; with FcγRIIIa (176V) (human) it was 1.88 min; in the assay with FcγRIIIa (176F) (human), 0.3 min; in assay [1] it was 0.05 min; with FcγRI (human), 18.7 min; with FcγRIIb (human) it was 0.0667 min.

Turning to bevacizumab (antibody), the koff was 0.196 s⁻¹ in the assay with FcγRIIIb (human); 0.00803 s⁻¹ with FcγRIIIa (176V) (human); 0.0626 s⁻¹ in the assay with FcγRIIIa (176F) (human); 0.111 s⁻¹ in assay [1]; 0.000749 s⁻¹ in the assay with FcγRI (human); 0.179 s⁻¹ in the assay with FcγRIIb (human). Besides, the t1/2 is 0.0667 min with FcγRIIIb (human); 1.43 min in the assay with FcγRIIIa (176V) (human); 0.183 min with FcγRIIIa (176F) (human); 0.1 min in assay [1]; 15.4 min with FcγRI (human); 0.0667 min with FcγRIIb (human).

On to bevacizumab:VEGF121 complex, for which the t1/2 with FcγRIIIb (human) is 4.42 min; with FcγRI (human) it was 57 min; in the assay with FcγRIIb (human), 6.33 min.

Turning to bevacizumab:VEGF165 complex, the t1/2 with FcγRIIIb (human) was 7.72 min; with FcγRI (human) it was 47.9 min; with FcγRIIb (human), 11.8 min.
